No end group written: not given here.
T1: Dm eIF4E (residues 69–248, WT) (Drosophila melanogaster, UniProt P48598)
T1 construct: The truncated His6-eIF4E (residues 69–248) that was used in the ITC experiments; His6 (N, cleaved yes); made in house; host or cells: E. coli BL21 Star (DE3)
T1 sequence (P48598 69-248 isoform P48598-2): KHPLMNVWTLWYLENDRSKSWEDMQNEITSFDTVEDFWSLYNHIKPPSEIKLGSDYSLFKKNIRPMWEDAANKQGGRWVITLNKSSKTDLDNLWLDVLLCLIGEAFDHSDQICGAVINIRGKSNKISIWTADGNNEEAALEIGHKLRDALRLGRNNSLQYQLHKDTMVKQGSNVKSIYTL

T2: eIF4E (residues 69–248), purified (Drosophila melanogaster, UniProt P48598-2 69-248)
T2 construct: eIF4E, Drosophila melanogaster, residues 69–248; the methods say the tag was cleaved with HRV3C; also called truncated eIF4E; eIF4E trunc; not shown: His6, N-terminal, cleaved
T2 sequence (looked up): T1 sequence (P48598 69-248 isoform P48598-2)

B1: Thor R,G,T: Thor R81A, G82A, T83A (protein, UniProt Q9XZ56 1-117, looked up, variant R81A G82A T83A)
Eukaryotic translation …: MSASPTARQAITQALPMITRKVVISDPIQMPEVYSSTPGGTLYSTTPGGTKLIYERAFMKNLRGSPLSQTPPSNVPSCLLAAAPRTPFRKCVPVPTELIKQTKSLKIEDQEQFQLDL

Key:
[1] = molecular target: T1, Dm eIF4E (residues 69–248, WT); assay: ITC, binding to eIF4E (WT, residues 69–248); conditions: for KD: VP-ITC, 20 mM Na-phosphate (pH 7.0), 150 mM NaCl, GB1-fused peptides (C+NC 10 μM, C 50 μM, L+NC 100 μM CUP or 200 μM Thor and 4E-T, eIF4G 20 μM) into eIF4E WT 1–20 μM, one-site model, each experiment repeated twice, nb = no binding; for KD / Molar ratio / TΔS / ΔG / ΔH: 20 °C; for Molar ratio / TΔS / ΔG / ΔH: eIF4E WT (69–248), pH 7.0, nb = no binding
Method: Unless indicated otherwise, all the proteins were expressed in E. coli BL21 Star (DE3) cells (Invitrogen) that were grown in LB medium overnight at 20 °C. The lysis buffers were supplemented with DNaseI (5 μg ml^−1), lysozyme (1 mg ml^−1) and protease inhibitor cocktail (Roche). The truncated His6-eIF4E (residues 69–248) that was used in the ITC experiments and in Figs 2c and 5b was purified in lysis buffer containing 50 mM HEPES (pH 7.2), 300 mM NaCl, 20 mM imidazole and 2 mM β-mercaptoethanol using Ni^2+-affinity chromatography (HisTrap HP 5 ml, GE Healthcare) and eluted with a gradient of 20–500 mM imidazole. After the cleavage of the His6-tag with HRV3C protease (homemade), the protein was further purified using a heparin column (HiTrap Heparin HP 5 ml, GE Healthcare), followed by size exclusion chromatography (Superdex 75 16/60, GE Healthcare) in 20 mM Na-phosphate (pH 7.0), 300 mM NaCl and 2 mM dithiothreitol (DTT).
For the ITC measurements and the competition assays shown in Figs 4 and 5d–g, the 4E-BP peptides corresponding to the canonical (C) motifs, the combined (C+NC) motifs or L+NC were expressed with an HRV3C cleavable N-terminal MBP-tag and a non-cleavable C-terminal GB1 domain. The cells were lysed by sonication in lysis buffer containing 50 mM HEPES (pH 7.2), 300 mM NaCl and 2 mM DTT. The proteins were purified from the cleared lysates using amylose resin (New England Biolabs) followed by the cleavage of the MBP tag with HRV3C protease overnight at 4 °C. The proteins were further purified by size exclusion chromatography (Superdex 75 16/60, GE Healthcare) in 20 mM Na-phosphate (pH 7.0), 300 mM NaCl and 2 mM DTT. For the eIF4G fragment (residues 578–650) the MBP was removed after cleavage with TEV protease through an additional anion exchange chromatography (HiTrap Q HP 5 ml, GE Healthcare) before the final gel filtration.
The ITC experiments were performed using a VP-ITC microcalorimeter (MicroCal) at 20 °C. The solution of eIF4E (residues 69–248, WT or mutant: 1–20 μM) in the calorimetric cell was titrated with tenfold concentrated solutions of GB1-stabilized peptides corresponding to 4E-BPs C+NC (10 μM), C (50 μM), L+NC (100 μM CUP, 200 μM Thor and 4E-T) or eIF4G (residues 578–650, 20 μM) that were dissolved in the same buffer (20 mM Na-phosphate (pH 7.0) and 150 mM NaCl). The titration experiments consisted of an initial injection of 2 μl followed by 28 injections of 10 μl at an interval of 240 s. Each binding experiment was repeated twice. The thermodynamic parameters were estimated using a one-site binding model (Origin version 7.0), whereby the datapoint of the first injection was removed for the analysis.
(d) minimal regions for binding to eIF4E (wild-type (WT), residues 69–248). The top panels represent the raw data (μcal sec−1) whereas the bottom panels show the integrated data (kcal mole−1 of injectant) of heat changes that were best-fitted using a one-site binding model. The thermodynamic parameters correspond to heat changes that were detected when 4E-BPs (10 µM) or eIF4G (20 µM) were injected into the calorimetric cell (1.4 mL) containing 1 µM (a,b,c) or 2 µM (d) eIF4E.
Supplementary Figure 4. Thermodynamic parameters for the interaction of eIF4E with 4E-BP peptides. (a–f) ITC profiles for the interaction of eIF4E (WT, residues 69-248) and CUP (a,d), Thor (b,e) and 4E-T (c,f) peptides containing only the canonical motifs (a–c) or the L+NC regions (d–f). The measurements were performed as described in Supplementary
Fig. 3. The solutions contained the peptides corresponding to the canonical motifs (50 µM) or the L+NC regions (100 µM for CUP and 200 µM for Thor and 4E-T). The eIF4E concentration in the calorimetric cell was 5 µM (for the C peptides), 10 µM (for CUP L+NC) and 20 µM (for Thor and 4E-T L+NC peptides).
(1 picture or pasted object on this page, not shown here)

[2] = system: endogenous eIF4E and HA-tagged 4E-BPs in S2 cells; assay: Immunofluorescence localization in S2 cells; format: cell-based, Drosophila melanogaster; conditions: −LMB
Method: S2 cells expressing HA-tagged versions of CUP, Thor and 4E-T or the indicated mutants were treated with Leptomycin B (100 nM; Sigma) or methanol as a control for 12 h. After the LMB treatment, the cells were allowed to adhere to poly-D-lysine–coated coverslips for 15 min and were fixed with 2% paraformaldehyde for 10 min. The cells were then permeabilized with 0.1% Triton X-100 in PBS (10 min) and stained with affinity-purified monoclonal anti-HA (Covance 1:1,000) and polyclonal anti-eIF4E (1:2,000) antibodies in PBS containing 1% BSA for 1 h. Alexa Fluor 594-labeled goat anti-rabbit and 488-labeled anti-mouse antibodies (Invitrogen) were used at dilutions of 1:1,000 and 1:2,000, respectively. The cells were mounted using Fluoromount-G (Southern Biotech). The images were acquired at room temperature using a confocal microscope (TCS SP2; Leica) that was fitted with a Plan-Apochromat × 100 NA 1.40 oil immersion objective and a series of three photomultipliers (Hamamatsu Photonics) controlled with the Leica confocal software (version 2.61). The images were prepared using Photoshop (Adobe). […]
Thor) independent experiments. […] Confocal fluorescent […]
micrographs of fixed S2 cells expressing HA-4E-T and GFP-Tral. The localization of HA-4E-T was determined by indirect immunofluorescence using an anti-HA antibody. The merged pictures show the HA signal in red and the GFP-Tral signal in green. Bar: 5 μm.

[3] = molecular target: T2, eIF4E (residues 69–248), purified; assay: ITC; VP-ITC, 20 °C; eIF4E (69–248, WT or mutant, 1–20 μM) in the cell, tenfold concentrated GB1-stabilized peptides titrated in; 20 mM Na-phosphate pH 7.0, 150 mM NaCl; one-site binding model; conditions: both partners purified
[4] = system: endogenous eIF4E; assay: Coimmunoprecipitation / m7GTP pull-down with endogenous eIF4E in S2 cell lysates; format: cell-based, Drosophila melanogaster; conditions: western blot
Method: The coimmunoprecipitations assays were performed as previously described. For the pull downs using m^7GTP beads, 25 μl of immobilized γ-aminophenyl-m^7GTP (C10-spacer—Jena Bioscience) beads was added to the cell lysates and the mixtures were rotated for 1 h at 4 °C. The beads were washed three times with NET buffer (50 mM Tris (pH 7.4), 150 mM NaCl, 1 mM EDTA and 0.1% Triton X-100). The bound proteins were eluted with 2 × SDS–polyacrylamide gel electrophoresis (SDS–PAGE) sample buffer and analyzed by western blotting (WB). All of the WB experiments were developed with the ECL western blotting detection system (GE Healthcare) as recommended by the manufacturer. The antibodies used in this study are listed in Supplementary Table 2.
Thor and 4E-T) or HA-eIF4G and endogenous eIF4E in S2 cell lysates. The proteins were immunoprecipitated using a polyclonal anti-eIF4E antibody (α-4E). The pre-immune (Pre-I) serum and an HA-tagged version of MBP served as negative controls. The inputs (1%) and immunoprecipitates (10%) were analyzed by western blotting using anti-HA and anti-eIF4E antibodies. (b,c) The interaction of HA-tagged full length 4E-BPs (CUP, Thor and 4E-T) and eIF4G with endogenous eIF4E was analyzed by coimmunoprecipitation using anti-HA antibodies (b) or by pull-down using m7GTP-Sepharose beads (c). HA-MBP served as a negative control. The inputs (10%) and immunoprecipitates (30%) were analyzed by western blotting using anti-HA and anti-eIF4E antibodies. (d) Western blot showing the interaction of HA-Thor (full-length either wild-type or mutants) with endogenous eIF4E in S2 cells. The proteins were immunoprecipitated using anti-HA antibodies and analyzed as described in (b,c). (e) Western blot showing the interaction of HA-4E-T (residues 1–511, wild-type or mutants) with endogenous eIF4E. The proteins were immunoprecipitated using anti-HA antibodies and analyzed as described in (b,c). The size markers (kDa) are shown to the right of each panel. Mutants are described in Supplementary Table 1.

| Molecule | TΔS [1] | ΔG [1] | Kd [3] | dH [3] | stoichiometry N [3] | further results |
| --- | --- | --- | --- | --- | --- | --- |
| 4E-T L+NC: 4E-T residues 22–44, linker+non-canonical | nb | nb |  |  |  | KD [1]: nb; Molar ratio [1]: nb; ΔH [1]: nb |
| 4E-T NC: 4E-T residues 31–44, non-canonical motif |  |  |  |  |  | localization of endogenous eIF4E (in words) ([2]; S2 cells overexpressing 4E-BP or mutant): the number of eIF4E-positive P-bodies was reduced; localization of the 4E-BP (in words) ([2]; S2 cells, steady-state): still localized to P-bodies |
| CUP L+NC: CUP residues 342–376, linker+non-canonical, C-terminal GB1 (ALMHRSKESFVMPRIATCDDIELEGRLRRMNIWRT-GB1; UniProt Q9VMA3 342-376, looked up, fragment) | -38.1 kJ/mol | -39.2 kJ/mol |  |  |  | KD of L+NC relative to C motif (in words) ([1]; eIF4E WT): comparable to that of the C motif; binding thermodynamics (in words) ([1]; eIF4E WT): enthalpically driven; interaction with eIF4E (in words) ([1]; eIF4E WT, L+NC peptides): interacted with eIF4E at detectable levels |
| Thor L+NC: Thor residues 64–83, linker+non-canonical | nb | nb |  |  |  | KD [1]: nb; Molar ratio [1]: nb; ΔH [1]: nb |
| ALMHRSKESFVMPRIATCDDIELEGRLRRMNIWRT (domain or fragment) [CUP L+NC peptide fused C-terminally to GB1] |  |  | 0.103 µM | -77.4 ± 0.837 kJ/mol | 0.98 ± 0.01 |  |
| RYSKVDLLALRYE (domain or fragment) [4E-T C peptide fused C-terminally to GB1] |  |  | 0.016 µM | -77.8 ± 2.93 kJ/mol | 0.95 ± 0.01 |  |
| TKLIYERAFMKNLR (domain or fragment) [Thor C peptide fused C-terminally to GB1] |  |  | 2.26 µM | -50.6 ± 11.7 kJ/mol | 1.06 ± 0.01 |  |
| KSYTRSRLMDIRNGMFN (domain or fragment) [CUP C peptide fused C-terminally to GB1] |  |  | 0.16 µM | -70.46 ± 0.167 kJ/mol | 1.01 ± 0.01 |  |
| B1 |  |  |  |  |  | interaction with endogenous eIF4E (in words) [4]: ineffective |

Source: article PMC4164784, “4E-BPs require non-canonical 4E-binding motifs and a lateral surface of eIF4E to repress translation” (Nature Communications, 2014)
